Our source for the EC50 values is patent publication US20210163606A1 (ATYR PHARMA, published 2021).

This experiment concerns the target T1, human NRP2 variant 2 (hNRP2), untagged, on Expi293 cells (Human, UniProt O60462 23-931).
T1 construct: Transcript NM_003872 / NP_003863.2; also called Expi293-hNRP2 clonal cells; Human NRP2a (version 2)
T1 sequence: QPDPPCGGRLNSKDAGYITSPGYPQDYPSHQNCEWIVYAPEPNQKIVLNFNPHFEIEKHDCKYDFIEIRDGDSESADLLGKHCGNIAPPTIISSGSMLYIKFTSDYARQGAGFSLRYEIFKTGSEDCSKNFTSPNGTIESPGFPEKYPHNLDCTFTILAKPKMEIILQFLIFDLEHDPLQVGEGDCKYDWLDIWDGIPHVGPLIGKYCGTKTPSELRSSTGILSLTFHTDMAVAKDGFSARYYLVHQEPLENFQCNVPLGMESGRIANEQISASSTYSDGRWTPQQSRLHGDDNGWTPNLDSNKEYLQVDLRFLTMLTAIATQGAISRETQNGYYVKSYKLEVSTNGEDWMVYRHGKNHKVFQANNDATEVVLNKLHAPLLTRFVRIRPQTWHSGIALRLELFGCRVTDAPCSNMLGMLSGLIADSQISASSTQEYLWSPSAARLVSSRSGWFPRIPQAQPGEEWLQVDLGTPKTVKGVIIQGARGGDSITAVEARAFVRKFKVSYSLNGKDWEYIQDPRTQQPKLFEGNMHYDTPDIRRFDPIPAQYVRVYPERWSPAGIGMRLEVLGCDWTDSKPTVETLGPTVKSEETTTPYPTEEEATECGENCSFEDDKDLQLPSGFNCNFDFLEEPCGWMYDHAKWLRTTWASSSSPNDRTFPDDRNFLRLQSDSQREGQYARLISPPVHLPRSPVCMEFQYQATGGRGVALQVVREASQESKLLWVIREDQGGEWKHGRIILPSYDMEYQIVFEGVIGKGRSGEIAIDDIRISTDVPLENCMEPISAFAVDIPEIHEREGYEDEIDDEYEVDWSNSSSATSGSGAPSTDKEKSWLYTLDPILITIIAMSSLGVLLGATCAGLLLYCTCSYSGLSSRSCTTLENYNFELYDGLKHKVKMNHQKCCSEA
The experiment can be described thus: flow cytometry on Expi293-hNRP2 clonal cells. Here is the method: Expi293-hNRP2 clonal cells were collected by centrifugation at 300 g for 5 minutes, and washed twice by DPBS (with calcium and magnesium, ThermoFisher Cat #14040133). Washed cells were added to a 96-well V-bottom plate (ThermoFisher Cat #1424572) at 100,000 cells/well in […] of DPBS added with Zombie Violet viability stain (Biolegend Cat #423114, diluted at 1:500). From this step on, cells were protected from light. Cells were kept at room temperature for 10 min and pelleted down at 300 g for 5 minutes at 4° C. Supernatants containing Zombie Violet were discarded, and without washing, 30 uL of antibodies diluted in the flow wash buffer (FWB, DPBS plus 2% FBS and 0.1% sodium azide to inhibit receptor internalization) were added to the cells. For anti-NRP2 antibody staining on Expi293-hNRP2 clonal cells, in-house human anti-NRP2 antibodies were tested at final concentrations of 0.006-100 nM at 4-fold dilutions. […] Binding was allowed to proceed on ice for 40-60 minutes. Cells were then pelleted at 300 g for 5 minutes at 4° C., supernatants removed, and cells washed twice by adding 150 μL of FWB and centrifuging the cells again in the same conditions. To detect a-NRP2 binding on the cell surface, Cy3-conjugated goat anti-human IgG Fc (Jackson ImmunoResearch Cat #109165098) was added to the cells at a final concentration of 3 μg/mL in 30 μL of FWB. After 30-40 minutes of incubation on ice, cells were pelleted at 300 g for 5 minutes at 4° C. and supernatants removed, and the cells were washed twice as described previously. Cells were then resuspended in FWB before acquisition on the Cytoflex. Gains were set based on staining controls. Cells were collected with typically more than 10,000 events. Cells were then analyzed on FlowJo analysis software by excluding dead cells and gating singlets. The statistical analysis was performed using GraphPad Prism. A four-parameter variable-slope curve was fitted to the data ([agonist] vs. response) using non-linear regression, and the EC₅₀ and r2 for each curve was determined.
The EC₅₀ of four anti-NRP2 antibodies directed against different domains of NRP2, were measured for binding to Expi293-hNRP2 clonal cells (see Table E1 and FIG. 3).
For orientation: Flow cytometry measures light scatter and fluorescence of single cells or particles in a stream.

B1: aNRP2-10v10 (antibody, V domains shown)
VH: EVQLVQSGAEVKKPGATVKISCKVSGFNIKDYYVHWVQQAPGKGLEWMGRIDVEDDETKYAPKFQGRVTITADTSTDTAYMELSSLRSEDTAVYYCATPIYGAREAWFAYWGQGTLVTVSS
VL: DIQMTQSPSSLSASVGDRVTITCTASSSVSSSYLHWYQQKPGKAPKLLIYRTSNLASGVPSRFSGSGSGTDFTLTISSLQPEDFATYYCHQYYRSPPTFGGGTKVEIK
By EC50 is commonly meant the concentration at which the effect is half-maximal. Regarding B1, the EC50 turned out to be 0.09 nM.
